Reference: patent US20230331848A1 (BIOSION, published 2023)

Experiments:
[1] = target: human PD-1 expressed on GS-J2/PD-1 cells (Genscript) (human, UniProt Q15116 25-288); test: cell-based or functional assay
[2] = target: T1, human PD-1-his protein prepared in-house (human, UniProt Q15116 25-167, biotin-labeled (sites not given)); test: capture ELISA, antibody captured, biotin human PD-1-his detected
T1 construct: also called biotin labeled human PD-1-his
Experimental: Briefly, 96-well micro plates were coated with 100 μl 2 μg/ml AffiniPure Goat Anti-Mouse IgG F(ab′)₂ fragment specific (Cat#:115-005-072, Jackson lmmunoResearch) or Goat-anti-human IgG (Cat#:109-005-097, Jackson ImmunoResearch, for the positive control and negative control) in PBS overnight at 4° C. Plates were washed once with wash buffer (PBST, PBS+0.05% Tween-20) and then blocked with 200 μl/well blocking buffer (5% w/v non-fatty milk in PBST) for 2 hours at 37° C. […] After a final wash, plates were incubated with 100 μl/well TMB (Cat#:TMB-S-002, Innoreagents) at room temperature.
For the capture ELISA, 96-well plates were coated with 100 μl 2 μg/ml AffiniPure Goat Anti-Human IgG, Fcγ fragment specific (Cat#:109-005-098, Jackson Immunoresearch) instead of AffiniPure goat-anti-mouse IgG F(ab′)₂ fragment specific.

[3] = target: T2, in house made human PD-1-Fc protein (human, biotin-labeled (sites not given)); test: competitive ELISA: biotin human PD-1-Fc + antibody on coated human PD-L1-Fc (competitor)
T2 construct: also called biotin-labeled human PD-1-Fc
Experimental: (§1) Briefly, 100 μl human PD-L1-Fc protein (prepared in-house with SEQ ID NO: 28) at 2 μg/mL in carbonate/bicarbonate buffer (pH 9.6) was coated on 96-well micro plates overnight at 4° C., Plates were washed with wash buffer (PBS+0.05% w/v Tween-20, PBST), and blocked with 5% w/v non-fatty milk in PBST for 2 hours at 37° C. […] After incubation at 37° C. for 40 minutes, plates were washed using wash buffer. […] Plates were washed again using wash buffer. Finally, TMB was added and the reaction was stopped using 1M H₂SO₄. The absorbance was read on a microplate reader using dual wavelength mode with 450 nm for TMB and 630 nm as the reference wavelength, then the OD (450-630) values were plotted against antibody concentrations. Data was analyzed using Graphpad Prism software and IC₅₀ values were reported.

[4] = target: T2, in house made human PD-1-Fc protein; test: blocking FACS: biotin human PD-1-Fc + antibody on GS-C2/PD-L1 cells (competitor: cell-surface human PD-L1)
[5] = target: T2, in house made human PD-1-Fc protein; test: competitive ELISA: antibody pre-mixed with biotin-labeled human PD-1-Fc, added to coated human PD-L1-Fc (blocked ligand); unit from the axis 'Con of mAb, nM.'
Experimental: The activities of the anti-PD1 antibodies of the disclosure to block PD-L1-PD1 binding were measured in a competitive ELISA.
as §1

Binder	Cell-based functional assay (EC50, nM) [1]	EC50 [2]	IC50 [3]	IC50 [4]	IC50 [5]
mouse anti-PD-1 monoclonal antibody E1A9C8A7 (antibody, V domains shown, Hybridoma-derived mouse mAb purified on Protein A; also called Mouse E1A9C8A7) VH: QVQLQQSGAEVVRPGVSVRISCKGSGYTFSDYVMHWMKQSHGESLEWIGVISTYHIPAVYNQKFKGKATMTVDKSSSTVYLELARLTSEDSAIYYCAREVYGDSYYFDVWGAGTTVTVSS VL: DVLMTQIPLSLPVSLGDQVSISCRSSQSIVHSNGNTYLEWYLQKPGQSPKLLIYKVSNRFSGVPDRFSGSGSGTDFTLKISRVEAEDLGVYYCFQGSHVPYTFGGGTKLEIK	6.62 nM	0.14 nM	0.37 nM	0.42 nM	–
mouse anti-PD-1 monoclonal antibody E1G5D1H1 (antibody, V domains shown, Hybridoma-derived mouse mAb; also called EIG5D1H1; E1G5DIH1) VH: EVQLVESGGGLVKPGGSLKLSCAASGFTFSDFYMYWVRQTPEKRLEWVATISNSGTQTYYLDSVKGRFTISRDNAKNNLYLQMSSLKSEDTAMYYCARDYYRYDSWYFDVWGAGTTVTVSS VL: DIVLTQSPASLAVSQGQRATISCRASESVDFYGTSLMQWFQLKPGQPPKLLIYAASNVESGVPARFSGSGSGTNFSLNIHPVEEDDIAMYFCQQSRKVPWTFGGGTNLEIK	–	–	–	–	0.434 nM
